Experimental data taken from article PMC12751052.

Molecular target: AcrIII-2 (second anti-CRISPR of type III systems), viral SAVED protein of Thermocrinis Great Boiling Spring virus (Thermocrinis Great Boiling Spring virus)
Assay: crystal structure; apo AcrIII-2, X-ray, data to 1.79 Å; crystals from 1.2 M sodium dihydrogen phosphate, 0.8 M dipotassium hydrogen phosphate, 0.2 M lithium sulphate, 0.1 M CAPS pH 10, 293 K

“AcrIII-2 (second anti-CRISPR of type III systems), viral SAVED protein of Thermocrinis Great Boiling Spring virus (natural protein)” was tested, and the stoichiometry N was 2.
